Data published in paper PMC2919228 (Molecular cell, 2010).

Target: Skp1-GST/Cdc4-HA (Saccharomyces cerevisiae, UniProt P52286 1-194; P07834 1-779)
Assay: pull-down

Sequence of Skp1-GST/Cdc4-HA (P52286 whole entry, chain 1 of 2): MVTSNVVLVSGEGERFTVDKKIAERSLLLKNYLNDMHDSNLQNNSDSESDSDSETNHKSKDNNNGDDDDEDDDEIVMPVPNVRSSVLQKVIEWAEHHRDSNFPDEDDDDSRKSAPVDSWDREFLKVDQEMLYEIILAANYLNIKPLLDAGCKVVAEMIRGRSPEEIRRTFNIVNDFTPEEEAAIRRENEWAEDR
Sequence of Skp1-GST/Cdc4-HA (P07834 whole entry, chain 2 of 2): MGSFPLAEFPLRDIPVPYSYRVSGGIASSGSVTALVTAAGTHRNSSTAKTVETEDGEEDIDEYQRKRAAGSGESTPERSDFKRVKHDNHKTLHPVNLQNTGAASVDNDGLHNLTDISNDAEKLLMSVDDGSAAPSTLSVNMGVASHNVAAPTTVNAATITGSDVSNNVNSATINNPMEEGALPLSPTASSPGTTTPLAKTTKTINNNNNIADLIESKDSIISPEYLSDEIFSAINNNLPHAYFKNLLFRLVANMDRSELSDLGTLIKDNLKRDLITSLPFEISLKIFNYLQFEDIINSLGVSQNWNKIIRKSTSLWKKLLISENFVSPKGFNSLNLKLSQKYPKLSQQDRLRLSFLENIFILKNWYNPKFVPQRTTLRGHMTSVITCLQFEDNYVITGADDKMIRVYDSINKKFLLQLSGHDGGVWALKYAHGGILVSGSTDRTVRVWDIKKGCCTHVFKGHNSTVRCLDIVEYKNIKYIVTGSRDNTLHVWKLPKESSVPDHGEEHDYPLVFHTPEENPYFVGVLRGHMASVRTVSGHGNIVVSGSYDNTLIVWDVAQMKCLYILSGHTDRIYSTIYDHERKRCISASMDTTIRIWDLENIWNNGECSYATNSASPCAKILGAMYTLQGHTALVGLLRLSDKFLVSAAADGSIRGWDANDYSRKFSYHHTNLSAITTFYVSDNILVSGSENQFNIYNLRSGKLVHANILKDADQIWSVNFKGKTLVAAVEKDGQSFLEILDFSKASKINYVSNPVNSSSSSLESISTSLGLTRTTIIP

B1: Gpa1-Flag (natural protein, Saccharomyces cerevisiae, UniProt P08539 1-472, looked up)
chain: MGCTVSTQTIGDESDPFLQNKRANDVIEQSLQLEKQRDKNEIKLLLLGAGESGKSTVLKQLKLLHQGGFSHQERLQYAQVIWADAIQSMKILIIQARKLGIQLDCDDPINNKDLFACKRILLKAKALDYINASVAGGSDFLNDYVLKYSERYETRRRVQSTGRAKAAFDEDGNISNVKSDTDRDAETVTQNEDADRNNSSRINLQDICKDLNQEGDDQMFVRKTSREIQGQNRRNLIHEDIAKAIKQLWNNDKGIKQCFARSNEFQLEGSAAYYFDNIEKFASPNYVCTDEDILKGRIKTTGITETEFNIGSSKFKVLDAGGQRSERKKWIHCFEGITAVLFVLAMSEYDQMLFEDERVNRMHESIMLFDTLLNSKWFKDTPFILFLNKIDLFEEKVKSMPIRKYFPDYQGRVGDAEAGLKYFEKIFLSLNKTNKPIYVKRTCATDTQTMKFVLSAVTDLIIQQNLKKIGII
B1: binds.
